Experimental data from the supplement of paper PMC10724198.
± gives the standard deviation of the averaged measurements.

Test system: Saccharomyces cerevisiae
Test: protein stability index of tFT-peptide fusion (C-terminal peptide) (PSI (0-1 scale)); higher = more stable (slower turnover)
Details: genetic background: wild type; temperature: 30 C
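Note: PSI is a weighted mean of sequencing reads over stability bins, variants kept only with over 10 reads, mCherry proximal and sfGFP distal, peptide attached via GGGS linker.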

Sequence | protein stability index
GSRSPPPLRPPP | 0.6755 ± 0.0012
GWGGVWGRVWWR | 0.563 ± 0.05
QGNEQFRYKILQ | 0.598 ± 0.098
FLGLFHTVKKWQ | 0.684 ± 0.06
PSLGLQAPTPCP | 0.679 ± 0.012
WLVGEWPGRWGR | 0.728 ± 0.037
VLCCFLFGFLLV | 0.576 ± 0.011
LLHVPIVFPRLI | 0.62 ± 0.043
IKPVETEKRECK | 0.668 ± 0.094
PPLYFFSPMAFF | 0.783 ± 0.032
GLGGSKKGEQRL | 0.674 ± 0.012
PHPLPPPTPSVP | 0.677 ± 0.018
GVGGGMWCGFGV | 0.701 ± 0.074
LSALPPRPFSYR | 0.7053 ± 0.004
PSEPGPPRVSTP | 0.647 ± 0.08
GARSARVWARAK | 0.664 ± 0.022
STLIARAQRGQA | 0.639 ± 0.073
LWFWAVECGLGG | 0.713 ± 0.32
AWGWGGTGSAGA | 0.71 ± 0.0097
AARSCRCSSLIG | 0.774 ± 0.0035
PCRLTRSPRTLP | 0.689 ± 0.1
RSPPPPPGPRFP | 0.698 ± 0.019
SFFFFSPFSRLS | 0.693 ± 0.032
PLFPPPPLRSWP | 0.766 ± 0.089
LIENVGDLETSR | 0.665 ± 0.059

Sequence | protein stability index
TKQKKIEDEEII | 0.6314 ± 0.0017
VSRGGMSGIVCL | 0.773 ± 0.11
PWDGFGPYAPYP | 0.657 ± 0.081
PHPPPERSTNLC | 0.694 ± 0.036
RKEAVTQTQKNT | 0.672 ± 0.051
GGWGGAGQWADG | 0.706 ± 0.011
SPSQRPLPSISP | 0.718 ± 0.01
IGVAARPWAGAQ | 0.706 ± 0.02
QGTNKRRNKNWE | 0.704 ± 0.03
HLPSPSLPSPYF | 0.7648 ± 0.0017
YADAGRVSLWIA | 0.5512 ± 0.0054
KKNKNLTYKRMI | 0.716 ± 0.029
QAGSTEERFCGG | 0.664 ± 0.02
RNSTDENDCGRK | 0.7062 ± 0.00038
YHNFLPRPPRKR | 0.662 ± 0.077
RVMGRHIGRPRE | 0.702 ± 0.015
PPPHSSPPPSPP | 0.693 ± 0.069
PPPHPGFHLSSP | 0.673 ± 0.088
PGHPGSCPRRNG | 0.645 ± 0.046
TNFGALNFDYAC | 0.772 ± 0.028
DARRAKPTRRNA | 0.688 ± 0.059
PFPPYSLPLPSP | 0.759 ± 0.016
YFGGMGPRGRER | 0.683 ± 0.016
VGVWAGVVLLGG | 0.825 ± 0.18
IMGIIKFKSYRI | 0.703 ± 0.12

Sequence | protein stability index
SFPPPHPPPPLP | 0.6998 ± 0.0045
PPPGPRPPSRSN | 0.581 ± 0.022
GFTCGCSSMKNF | 0.718 ± 0.021
VRATSMWRSRGR | 0.688 ± 0.053
TVLSSQKPNNDR | 0.652 ± 0.023
TTPKLQPAPAVP | 0.691 ± 0.059
LLLLFWSGSCGC | 0.648 ± 0.013
VAPLTPPPSLPF | 0.671 ± 0.014
EGDGAVGKTRGD | 0.691 ± 0.042
GEYYAPVVGRRF | 0.7121 ± 0.0031
GKEGGKAGKISE | 0.667 ± 0.028
FLIFSLSFCVLS | 0.6713 ± 0.0031
FVGDPRRLSLPI | 0.761 ± 0.14
PLHPPSLPPPPT | 0.732 ± 0.032
SRGPSLYLCGVR | 0.63 ± 0.00074
LIRYVPFSYVLV | 0.599 ± 0.007
PFLSPPPPSTPP | 0.704 ± 0.01
VFAGGCRLYCFR | 0.624 ± 0.063
GRVGRGGAVGEW | 0.671 ± 0.022
PLLPPSSVPTPS | 0.784 ± 0.1
AIGSVWACVCCS | 0.504 ± 0.095
LPQVYSGIMRFV | 0.6243 ± 0.0036
QWAAVCAVVGGG | 0.684 ± 0.055
DPPLPLSPLTHR | 0.679 ± 0.05
GNELLINRVKPR | 0.698 ± 0.0085

Sequence | protein stability index
YDAGWVDVLLVI | 0.6419 ± 0.0064
PGRQSPPAPLYR | 0.678 ± 0.0098
HIPHSKPRTSLP | 0.734 ± 0.048
QHFIRGWAWPTV | 0.729 ± 0.034
PTQPVPPRTPHY | 0.6698 ± 0.0051
VPPSYDLPLFPF | 0.632 ± 0.013
PMLSLFRYNVVR | 0.697 ± 0.021
PHAPHPPHPAPC | 0.653 ± 0.01
HLLPRPIRPSTP | 0.664 ± 0.074
EKTKEHRNDSQR | 0.695 ± 0.014
MGCDGSMAPRSL | 0.6608 ± 0.0029
SWSVSVNMVGQS | 0.6829 ± 0.0042
YLLYSDSLCFVT | 0.659 ± 0.03
PPLAPPHPCPPP | 0.698 ± 0.018
FVGWGLGVGTHD | 0.679 ± 0.0054
FPLPPFPLTPPP | 0.64 ± 0.054
FSSSPGRSFRTV | 0.726 ± 0.0091
GEEGQRGRGWRS | 0.733 ± 0.039
RGKIKKTRKDNK | 0.598 ± 0.021
VLIEWKGSREKY | 0.824 ± 0.21
GYYPVALDYKLR | 0.708 ± 0.05
GGREVGQVLWDD | 0.667 ± 0.024
FRSGRLSPPAPS | 0.692 ± 0.0028
PLPPRPHPLLSP | 0.6526 ± 0.0026
PLVLPPSPASPF | 0.694 ± 0.042

Sequence | protein stability index
KKHKKEDNKEKK | 0.708 ± 0.051
SPRLHFPPRHPC | 0.717 ± 0.015
PLVPLAFWSPLV | 0.686 ± 0.035
QKDTGKETTYRA | 0.681 ± 0.037
GLVRGRLVGLED | 0.646 ± 0.056
RLEAVLCRRFLR | 0.6561 ± 0.0026
VLSLLGVLFCLF | 0.634 ± 0.028
PLSPRHVSPPLL | 0.778 ± 0.045
AWGWPWGHGFVV | 0.738 ± 0.047
LGFFGGGRWAGG | 0.717 ± 0.025
NGRNKKRKCLQT | 0.706 ± 0.086
PRPPRSPLPSSL | 0.7 ± 0.041
AELALGIESYLP | 0.683 ± 0.083
RMINRLEKKHTK | 0.771 ± 0.098
GTMAVWKGQRSG | 0.698 ± 0.04
VSAPLGRFSGLV | 0.685 ± 0.036
SAPFGFLFFARL | 0.815 ± 0.083
LSPPRSPPSRPP | 0.645 ± 0.029
GLTCKSTASCKV | 0.693 ± 0.01
THHTPKILNTKR | 0.708 ± 0.063
GVGGGGACRPVG | 0.709 ± 0.15
PPGPPPPLPISP | 0.7244 ± 0.0044
LRLPAPPLASAC | 0.596 ± 0.006
RVGVRGVVVSMG | 0.612 ± 0.075
WMSFLARVVTFE | 0.716 ± 0.025

Sequence | protein stability index
VRRRANVRVLRD | 0.688 ± 0.077
WMSVCCRSALVD | 0.65 ± 0.011
LRRAPPSPPPPP | 0.716 ± 0.054
PPLASFPPPPPL | 0.667 ± 0.064
LCLFPLVTPPPA | 0.607 ± 0.029
TFPKKKGLLNIS | 0.636 ± 0.028
EKKKEKKGKKRE | 0.683 ± 0.029
PPPPLPPLTPLS | 0.6512 ± 0.0037
PVPSYYHKPPPL | 0.704 ± 0.019
YRLCEARVQSDN | 0.685 ± 0.022
GGGGRWGVLVLG | 0.504 ± 0.0062
KRKKKENNKIKI | 0.756 ± 0.1
SLSSPILYLFAS | 0.65 ± 0.013
RPLWVDGPHPSR | 0.666 ± 0.1
GGPPTQAKPSPR | 0.647 ± 0.012
SLLPSSFRAPAP | 0.652 ± 0.045
CLVLDILSETWL | 0.71 ± 0.036
SREKRKEEQTQK | 0.717 ± 0.018
SPTPHPPPSPPL | 0.728 ± 0.023
EGRTQTLPSRVT | 0.638 ± 0.05
SSTPYRHLLTPH | 0.723 ± 0.013
